Experimental data from patent US20240158497A1 (published 2024).

T1: Macaca Fascicularis GP130 extracellular domain expressed with a C-terminal myc-myc-hexahistidine tag (Macaca fascicularis, UniProt P40189 23-619 (human entry))
T1 construct: also called mfGP130-MMH; mfGP130-mmH
T1 chain: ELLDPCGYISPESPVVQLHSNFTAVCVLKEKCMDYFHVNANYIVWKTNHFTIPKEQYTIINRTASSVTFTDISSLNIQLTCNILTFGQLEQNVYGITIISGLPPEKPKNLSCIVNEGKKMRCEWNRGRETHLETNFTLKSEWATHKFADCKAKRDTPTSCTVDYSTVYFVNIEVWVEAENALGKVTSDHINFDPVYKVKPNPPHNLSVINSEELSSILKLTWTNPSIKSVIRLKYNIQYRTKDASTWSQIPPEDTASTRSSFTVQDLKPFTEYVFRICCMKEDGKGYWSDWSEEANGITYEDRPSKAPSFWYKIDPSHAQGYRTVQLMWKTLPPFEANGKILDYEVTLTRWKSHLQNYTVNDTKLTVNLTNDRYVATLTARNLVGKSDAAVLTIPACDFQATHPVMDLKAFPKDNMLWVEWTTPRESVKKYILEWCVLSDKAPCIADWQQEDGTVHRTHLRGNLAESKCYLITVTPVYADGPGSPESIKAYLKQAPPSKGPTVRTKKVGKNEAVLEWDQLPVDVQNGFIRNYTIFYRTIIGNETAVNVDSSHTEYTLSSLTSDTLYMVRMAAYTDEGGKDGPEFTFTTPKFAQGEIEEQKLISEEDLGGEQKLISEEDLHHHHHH

B1: bsAb19142D (bispecific antibody, V domains shown)
VH 1: QVQLVESGGGVVQPGRSLRLSCTASGFTFSSYAMYWVRQAPGKGLEWVSVIYYDGSYKYYADSVKGRFTISRDNSKNTLYLQMDSLRAEDTAVYYCASYNWNYWYFDFWGRGTLVTVSS
VH 2: EVQLVESGGGLVQPGGSLRLSCAASGLTFSSYEMNWVRQAPGKGLEWVSHISSAGSTKYYADSVKGRFTISRDNAKNSLFLQMNSLRAEDTAIYYCAGYNYAYYYFGVDVWGQGTTVTVSS
VL: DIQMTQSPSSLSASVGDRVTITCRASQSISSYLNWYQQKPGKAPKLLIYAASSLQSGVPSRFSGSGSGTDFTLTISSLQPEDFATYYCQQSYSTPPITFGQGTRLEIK
notes: LEPR x GP130 bispecific with common light chain
B2: bsAb19143D (bispecific antibody, V domains shown)
VH 1: B1 VH 1
VH 2: QLQLQESGPGLVKPSETLSLICTVSGGSISSNNYYWGWIRQPPGKGLEWIGNLYGSGSTYYNPSLKSRVTISVDTSKNQFSLKLSFVTAADTAVYHCARWDTNGGAFDIWGQGTMVTVSS
VL: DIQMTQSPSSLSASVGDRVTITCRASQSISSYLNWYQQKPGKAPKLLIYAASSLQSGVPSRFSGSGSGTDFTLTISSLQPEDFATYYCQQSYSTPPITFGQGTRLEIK
notes: as for B1
B3: bsAb19144D (bispecific antibody, V domains shown)
VH 1: B1 VH 1
VH 2: QVQLVQSGAEVKKPGASVKVSCKASGYTFTSLGISWVRQAPGQGLEWMGWISAYSGNRDYAQKFQGRVTMTTDTSTSTAYMELRSLRSDDTAVYYCARSLRFDYWGQGTLVTVSS
VL: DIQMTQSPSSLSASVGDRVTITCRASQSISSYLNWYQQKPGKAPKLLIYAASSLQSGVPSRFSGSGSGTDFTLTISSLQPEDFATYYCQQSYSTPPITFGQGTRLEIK
notes: as for B1
B4: bsAb19145D (bispecific antibody, V domains shown)
VH 1: B1 VH 1
VH 2: EVQLVESGGGLVQPGRSLRLSCAASGFTLDDFAMHWVRQAPGKGLEWVSGISWNSGNIGYADSVKGRFTISRDNARNSLYLQMNSLRAEDTALYYCTSGYYLYYAMDVWGQGTTVTVSS
VL: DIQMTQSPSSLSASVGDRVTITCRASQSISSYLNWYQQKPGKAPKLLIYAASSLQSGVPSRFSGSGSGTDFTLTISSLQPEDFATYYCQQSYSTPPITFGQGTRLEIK
notes: as for B1
B5: bsAb19146D (bispecific antibody, V domains shown)
VH 1: B1 VH 1
VH 2: QVQLVQSGPEVKKPGSSVKVSCKASGGTIDRNEITWVRQAPGQGLEWMGVIIPILGEAHYERKFQGRLTITMDESTSTAYMELSNLRSEDTAVYYCARERAARGYLDYWGQGTLVTVSS
VL: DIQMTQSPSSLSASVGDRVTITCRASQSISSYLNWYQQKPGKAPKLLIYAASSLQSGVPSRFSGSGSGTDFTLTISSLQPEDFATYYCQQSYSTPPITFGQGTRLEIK
notes: as for B1
B6: bsAb19150D (bispecific antibody, V domains shown)
VH 1: B1 VH 1
VH 2: EVQLVESGGGLVQSGGSLRLSCAASGFTFSRYEMNWVRQAPGKGLEWVAYISNTGTTRDYSDSVKGRFTISRDNAKNSLYLQMSSLRVEDTAVYYCVREKFSGTSDWFDPWGQGTLVTVSS
VL: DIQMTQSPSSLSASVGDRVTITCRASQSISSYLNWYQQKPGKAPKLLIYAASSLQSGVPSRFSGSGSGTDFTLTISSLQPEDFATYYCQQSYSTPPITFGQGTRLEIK
notes: as for B1
B7: bsAb19151D (bispecific antibody, V domains shown)
VH 1: B1 VH 1
VH 2: EVQLVESGGGLVQPGGSLRLSCAASGFTFSSYAMNWVRQAPGKGLEWVSAISGSGDSTYYTDSVKGRFTISRDNSKNTLYLQMNTLRAEDTAVYYCAKEEIVMLVGATPGWFDPWGQGTLVTVSS
VL: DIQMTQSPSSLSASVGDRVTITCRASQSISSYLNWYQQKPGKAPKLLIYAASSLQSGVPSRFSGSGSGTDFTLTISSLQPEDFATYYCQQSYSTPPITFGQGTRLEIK
notes: as for B1
B8: bsAb19152D (bispecific antibody, V domains shown)
VH 1: B1 VH 1
VH 2: EVQLVQSGAEVKKPGESLKISCKGSGYSFTSYWIDWVRQMPGKGLEWMGIIYPDDSDTRYSPSFQGQVTMSVDKSISTAYLQWSSLKASDTAIYYCARHERGIVEAGTDYYYYYGMDVWGQGTTVTVSS
VL: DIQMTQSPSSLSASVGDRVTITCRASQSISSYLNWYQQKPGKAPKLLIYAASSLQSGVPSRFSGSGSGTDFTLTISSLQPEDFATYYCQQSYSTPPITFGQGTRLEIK
notes: as for B1
B9: bsAb19153D (bispecific antibody, V domains shown)
VH 1: B1 VH 1
VH 2: QVQLVQSGAEVMKPGASVKVSCRASGYTFSSYDINWVRQAPGQGLEWMGWISTATGNTNYPQKVQGRVTMTTDTSTNTAYMELRSLRSDDTAVYYCTREGNSKGWLDPWGQGTLVTVSS
VL: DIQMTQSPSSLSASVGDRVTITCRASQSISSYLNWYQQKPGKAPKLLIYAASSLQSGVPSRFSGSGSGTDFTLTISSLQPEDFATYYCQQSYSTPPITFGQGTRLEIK
notes: as for B1

These binders were tested against T2, human GP130 extracellular domain expressed with a C-terminal myc-myc-hexahistidine tag (human, UniProt P40189 23-619) (assay: SPR, bsAb captured by anti-hFc, 37C).
T2 construct: also called hGP130-MMH; hGP130-mmH
Protocol: (§1) Equilibrium dissociation constants (KD values) for LEPR and GP130 binding to purified anti-LEPR/GP130 bispecific antibodies were determined using a real-time surface plasmon resonance biosensor using a Biacore 4000 instrument. All binding studies were performed in 10 mM HEPES, 150 mM NaCl, 3 mM EDTA, and 0.05% v/v Surfactant Tween-20, pH 7.4 (HBS-ET) running buffer at 25° C. and 37° C. The Biacore sensor surface was first derivatized by amine coupling with a monoclonal mouse anti-human Fc antibody (GE, #BR-1008-39) to capture anti-LEPR/GP130 bispecific antibodies. […] Different concentrations of LEPR or GP130 reagents were first prepared in HBS-ET running buffer (100 nM-3.7 nM; 3-fold serial dilution) and were injected over anti-human Fc captured anti-LEPR/GP130 bispecific antibody surface for 4 minutes at a flow rate of 30 μL/minute, while the dissociation of bispecific antibody bound LEPR or GP130 reagent was monitored for 10 minutes in HBS-ET running buffer. Kinetic association (kₐ) and dissociation (kd) rate constants were determined by fitting the real-time binding sensorgrams to a 1:1 binding model with mass transport limitation using Scrubber 2.0c curve-fitting software. Binding dissociation equilibrium constants (KD) and dissociative half-lives (t ½) were calculated from the kinetic rate constants as: […]

Binder	100 nM hGP130-MMH Bound (RU)	Kd [µM]	koff [s⁻¹]	kon [M⁻¹ s⁻¹]	t½ [min]
B1	37	0.0175	0.00622	356000	1.9
B2	27	0.0446	0.00212	47600	5
B3	42	0.0106	0.00188	177000	6
B4	30	0.032	0.00222	69200	5
B5	53	0.000901	0.000641	712000	18
B6	52	0.0154	0.00665	433000	1.7
B7	16	0.0166	0.000373	22400	31
B8	28	0.0891	0.0363	407000	0.3
B9	33	0.00395	0.00126	319000	9

Biological target: T1, Macaca Fascicularis GP130 extracellular …
Assay: SPR, bsAb captured by anti-hFc, 37C
Protocol: as §1

Binder	100 nM mfGP130-MMH Bound (RU)	Kd [µM]	koff [s⁻¹]	kon [M⁻¹ s⁻¹]	t½ [min]
B1	33	0.0216	0.00715	332000	1.6
B2	14	0.0579	0.00396	68300	2.9
B3	41	0.0109	0.00183	168000	6
B4	29	0.0376	0.00221	58800	5
B5	53	0.000959	0.000626	653000	18
B6	46	0.0193	0.00773	401000	1.5
B7	6	–	–	–	–
B8	51	0.0516	0.0177	342000	0.7
B9	32	0.00433	0.00123	284000	9

Each binder was assayed against T2, human GP130 extracellular domain … (assay: SPR, bsAb captured by anti-hFc, 25C).
Protocol: as §1

Binder	100 nM hGP130-MMH Bound (RU)	Kd [µM]	koff [s⁻¹]	kon [M⁻¹ s⁻¹]	t½ [min]
B1	31	0.019	0.00329	173000	4
B2	16	0.0202	0.000647	32000	18
B3	27	0.0121	0.000777	64300	15
B4	19	0.0175	0.000598	34100	19
B5	31	0.000448	0.000273	609000	42
B6	47	0.014	0.0048	342000	2.4
B7	9	0.0105	0.000221	21100	52
B8	35	0.0574	0.0113	196000	1
B9	24	0.00162	0.000419	258000	28

Biological target: T1, Macaca Fascicularis GP130 extracellular …
Assay: SPR, bsAb captured by anti-hFc, 25C
Protocol: as §1

Binder	100 nM mfGP130-MMH Bound (RU)	Kd [µM]	koff [s⁻¹]	kon [M⁻¹ s⁻¹]	t½ [min]	binding result
B1	28	0.0312	0.00374	120000	3.1	–
B2	10	0.043	0.0013	30100	9	–
B3	27	0.0134	0.000762	56700	15	–
B4	18	0.0174	0.000576	33100	20	–
B5	31	0.000513	0.000258	502000	45	–
B6	44	0.0168	0.00519	308000	2.2	–
B7	3	–	–	–	–	no binding (tested: 100 nM)
B8	52	0.0188	0.00553	295000	2.1	–
B9	23	0.00173	0.000396	229000	29	–
